{"source": "the supplement of paper PMC10567573", "parents": {"B1": {"name": "PTPLAD1 (parent)", "chain": "YSFYMLTCIDMDWKVLTWLRYTLW"}, "B2": {"name": "TPRG1 (parent)", "chain": "ETIQGFWLLTKIDHWNNEKERILL"}}}
{"variants_of": "B1", "test": "protein stability index of a GFP-peptide fusion (GPS, HEK-293T) (PSI 1-6); higher = more stable", "conditions": "c terminus: a fixed tail appended"}
{"variant": "Y21W", "protein stability index": 1.84}
{"variant": "Y21V", "protein stability index": 2.28}
{"variant": "L23R", "protein stability index": 4.16}
{"variant": "L23P", "protein stability index": 4.2}
{"variant": "L23S", "protein stability index": 2.99}
{"variant": "L23D", "protein stability index": 2.6}
{"variant": "L23I", "protein stability index": 2.88}
{"variant": "L23E", "protein stability index": 2.74}
{"variant": "L23A", "protein stability index": 3.26}
{"variant": "L23F", "protein stability index": 2.46}
{"variant": "L23W", "protein stability index": 2.4}
{"variant": "L23T", "protein stability index": 4.8}
{"variant": "L23H", "protein stability index": 2.58}
{"variant": "L23Q", "protein stability index": 3.84}
{"variant": "L23C", "protein stability index": 4.3}
{"variant": "T22V", "protein stability index": 1.99}
{"variant": "T22Q", "protein stability index": 2.2}
{"variant": "T22R", "protein stability index": 2.25}
{"variant": "T22H", "protein stability index": 2.85}
{"variant": "T22M", "protein stability index": 2.12}
{"variant": "T22C", "protein stability index": 2.07}
{"variant": "T22F", "protein stability index": 2.08}
{"variant": "T22A", "protein stability index": 2.78}
{"variant": "T22N", "protein stability index": 2.27}
{"variant": "T22Y", "protein stability index": 2.26}
{"variant": "W24Y", "protein stability index": 2.72}
{"variant": "W24N", "protein stability index": 2.55}
{"variant": "W24H", "protein stability index": 3.02}
{"variant": "W24K", "protein stability index": 1.37}
{"variant": "W24M", "protein stability index": 3.14}
{"variant": "W24R", "protein stability index": 2.04}
{"variant": "W24F", "protein stability index": 2.24}
{"variant": "W24P", "protein stability index": 2.58}
{"variant": "W24A", "protein stability index": 2.83}
{"variant": "W24E", "protein stability index": 2.77}
{"variant": "W24I", "protein stability index": 3.4}
{"variant": "W24D", "protein stability index": 4.01}
{"variant": "W24C", "protein stability index": 2.42}
{"variant": "W24G", "protein stability index": 2.39}
{"variants_of": "B2", "test": "protein stability index of a GFP-peptide fusion (GPS, HEK-293T) (PSI 1-6); higher = more stable", "conditions": "c terminus: a fixed tail appended"}
{"variant": "L24K", "protein stability index": 2.24}
{"variant": "L24M", "protein stability index": 2.21}
{"variant": "T10D", "protein stability index": 1.8}
{"variant": "T10E", "protein stability index": 2.91}
{"variant": "T10G", "protein stability index": 2.35}
{"variant": "T10F", "protein stability index": 1.96}
{"variant": "T10I", "protein stability index": 3.71}
{"variant": "K19V", "protein stability index": 1.62}
{"variant": "K19E", "protein stability index": 1.69}
{"variant": "K19N", "protein stability index": 4.67}
{"variant": "K19I", "protein stability index": 2.47}
{"variant": "K19W", "protein stability index": 2.92}
{"variant": "K19G", "protein stability index": 1.76}
{"variant": "I12H", "protein stability index": 1.9}
{"variant": "I12M", "protein stability index": 3.11}
{"variant": "I12A", "protein stability index": 3.59}
{"variant": "I12K", "protein stability index": 2.07}
{"variant": "I12R", "protein stability index": 1.75}
{"variant": "D13P", "protein stability index": 2.19}
{"variant": "D13Q", "protein stability index": 3.45}
{"variant": "D13V", "protein stability index": 2.29}
{"variant": "D13M", "protein stability index": 1.04}
{"variant": "D13W", "protein stability index": 2.98}
{"variant": "D13I", "protein stability index": 3.03}
{"variant": "R21H", "protein stability index": 2.66}
{"variant": "R21I", "protein stability index": 2.51}
{"variant": "R21E", "protein stability index": 3.83}
{"variant": "R21T", "protein stability index": 2.79}
{"variant": "R21C", "protein stability index": 3.09}
{"variant": "R21G", "protein stability index": 2.98}
{"variant": "Q4D", "protein stability index": 3.98}
{"variant": "Q4Y", "protein stability index": 2.77}
{"variant": "Q4N", "protein stability index": 1.82}
{"variant": "Q4H", "protein stability index": 1.97}
{"variant": "Q4G", "protein stability index": 2.68}
{"variant": "Q4K", "protein stability index": 2.89}
{"variant": "Q4P", "protein stability index": 3.54}
{"variant": "H14F", "protein stability index": 2.41}
{"variant": "H14L", "protein stability index": 2.25}
{"variant": "H14S", "protein stability index": 2.41}
{"variant": "H14V", "protein stability index": 3.16}
{"variant": "H14W", "protein stability index": 2.98}
{"variant": "H14M", "protein stability index": 2.37}
{"variant": "H14G", "protein stability index": 1.34}
{"variant": "W7C", "protein stability index": 3.25}
{"variant": "W7N", "protein stability index": 2.18}
{"variant": "W7E", "protein stability index": 1.93}
{"variant": "E18H", "protein stability index": 2.3}
{"variant": "E18K", "protein stability index": 1.71}
{"variant": "E18N", "protein stability index": 2.14}
{"variant": "E18L", "protein stability index": 3.57}
{"variant": "E18I", "protein stability index": 1.56}
{"variant": "L9F", "protein stability index": 3.19}
{"variant": "L9P", "protein stability index": 2.7}
{"variant": "L9Q", "protein stability index": 1.65}
{"variant": "L9D", "protein stability index": 1.58}
{"variant": "L9S", "protein stability index": 2.88}
{"variant": "L9G", "protein stability index": 2.15}
{"variant": "L9K", "protein stability index": 1.54}
{"variant": "T2D", "protein stability index": 1.91}
{"variant": "T2C", "protein stability index": 1.55}
{"variant": "T2Y", "protein stability index": 3.19}
{"variant": "T2N", "protein stability index": 2.16}
{"variant": "T2P", "protein stability index": 1.61}
{"variant": "T2E", "protein stability index": 2.51}
{"variant": "N17V", "protein stability index": 3.23}
{"variant": "N17S", "protein stability index": 2.2}
{"variant": "N17Y", "protein stability index": 3.59}
{"variant": "N17M", "protein stability index": 3.42}
{"variant": "N17A", "protein stability index": 2.33}
{"variant": "I22K", "protein stability index": 2.15}
{"variant": "I22A", "protein stability index": 2.62}
{"variant": "I22L", "protein stability index": 3.26}
{"variant": "I22R", "protein stability index": 1.48}
{"variant": "G5Q", "protein stability index": 1.98}
{"variant": "G5C", "protein stability index": 3.97}
{"variant": "G5W", "protein stability index": 3.06}
{"variant": "G5L", "protein stability index": 1.38}
{"variant": "G5I", "protein stability index": 1.69}
{"variant": "W15N", "protein stability index": 1.57}
{"variant": "W15P", "protein stability index": 2.2}
{"variant": "W15E", "protein stability index": 2.05}
{"variant": "W15Q", "protein stability index": 2.09}
{"variant": "L8P", "protein stability index": 1.43}
{"variant": "L8E", "protein stability index": 2.42}
{"variant": "L8H", "protein stability index": 2.04}
{"variant": "L8Q", "protein stability index": 1.53}
{"variant": "L8K", "protein stability index": 3.05}
{"variant": "L8V", "protein stability index": 2.27}
{"variant": "L8W", "protein stability index": 1.43}
{"variant": "L8Y", "protein stability index": 4.07}
{"variant": "E20M", "protein stability index": 3.33}
{"variant": "E20L", "protein stability index": 3.61}
{"variant": "N16G", "protein stability index": 1.75}
{"variant": "N16E", "protein stability index": 1.92}
{"variant": "N16M", "protein stability index": 1.63}
{"variant": "N16A", "protein stability index": 2.06}
{"variant": "N16P", "protein stability index": 2.99}
{"variant": "F6Y", "protein stability index": 2.51}
{"variant": "F6K", "protein stability index": 1.3}
{"variant": "F6P", "protein stability index": 1.74}
{"variant": "F6T", "protein stability index": 2.69}
{"variant": "F6H", "protein stability index": 1.94}
{"variant": "F6C", "protein stability index": 3.16}
{"variant": "K11R", "protein stability index": 1.54}
{"variant": "K11F", "protein stability index": 3.4}
{"variant": "K11Y", "protein stability index": 4.47}
{"variant": "K11L", "protein stability index": 1.49}
{"variant": "K11H", "protein stability index": 1.76}
{"variant": "K11P", "protein stability index": 2.92}
{"variant": "K11W", "protein stability index": 2.02}
{"variant": "E1T", "protein stability index": 1.82}
{"variant": "E1D", "protein stability index": 2.8}
{"variant": "E1Q", "protein stability index": 3.37}
{"variant": "E1H", "protein stability index": 2.48}
{"variant": "E1I", "protein stability index": 3.09}
{"variant": "E1V", "protein stability index": 4.74}
{"variant": "E1S", "protein stability index": 2.85}
{"variant": "I3Q", "protein stability index": 1.99}
{"variant": "I3L", "protein stability index": 1.53}
{"variant": "I3T", "protein stability index": 2.18}
{"variant": "I3S", "protein stability index": 1.28}
{"variant": "L23W", "protein stability index": 3.52}
{"variant": "L23E", "protein stability index": 2.38}
{"variant": "L23Q", "protein stability index": 1.78}
{"variant": "L23P", "protein stability index": 1.95}
{"variant": "L23T", "protein stability index": 2.42}
{"variant": "L23R", "protein stability index": 1.77}
